According to patent publication US20140357838A1, “N-Terminally Modified Insulin Derivatives” (Novo Nordisk A/S, priority 2011, published 2014):
Starred links: 1 amine or outer side, 2 acyl side, 3 side chain; linkers in the order of their positions; H or OH if unused. Positions of bridges follow the written chain, without caps; N, C: chain ends. Groups on a side chain read outwards from the residue. Chains are numbered I, II in the order given. No end group written: not given here. *: point of attachment. Phe(Nα-CONH2) = NC(=O)N[C@@H](Cc1ccccc1)C(=O)*; C20 diacid = O=C(O)CCCCCCCCCCCCCCCCCCC(=O)*; C18 diacid = O=C(O)CCCCCCCCCCCCCCCCC(=O)*; NMe2Phe = CN(C)[C@@H](Cc1ccccc1)C(=O)*; γGlu = O=C(O)[C@H](CCC(=O)[*:2])N[*:1]; Hydantoyl = NC(=O)NCC(=O)*; AEEA = NCCOCCOCC(=O)O; Me2Gly = CN(C)CC(=O)*

Key:
[1] = Chemical stability of insulin derivatives in 2 mM phosphate (SEC-HPLC and RP-HPLC); type: physicochemical; conditions: 4 weeks 37° C. minus 5° C. start sample; for Chemical degradation (%) (4 weeks 37° C.- 0 weeks 5° C.): pH 7.5, RP-HPLC; for HMWP Formation (%) (4 weeks 37° C.- 0 weeks 5° C.): pH 7.5, SEC-HPLC
Procedure: Chemical stability of an insulin derivative is assessed after incubating insulin derivative in 2 mM phosphate, pH=7.5 at 37° C. for up to 8 weeks. Formation of high molecular weight products (HMWP) is determined by SEC HPLC analysis after 0, 2, 4 and optionally 8 weeks. The results of the SEC method are given as a difference between HMWP formation at 37° C. and 5° C. start sample as a percentage of total absorbance at 215 nm. Chemical degradation products are determined by RP HPLC analysis after 0, 2, 4 and optionally 8 weeks. The results of the RP method are given as a difference between chemical degradation observed at 37° C. and 5° C. start sample as a percentage of total absorbance at 215 nm.
• Solvent: 500 mM NaCl, 10 mM NaH2PO4, 5 mM H3PO4, 50% (v/v) 2-propanol • Flow: 0.5 ml/min • Run time: 30 min • UV Detection: 215 nm • Column: Insulin HMWP column from Waters 7.8×300 mm • Temperature: 50° C.
• Solvent A: 0.09M phosphate buffer pH 3.6 (di-ammoniumhydrogenphosphate), 10% MeCN (v/v) • Solvent B: 80% MeCN (v/v %) • Flow: 0.3 ml/min • Runtime: 33 min • UV Detection: 215 nm • Column: Waters Acquity BEH130 C18 Column 1.7 μm, 150×2.1 mm • Temperature: 50° C. • Gradient: […]

[2] = Hydrophobicity by isocratic reverse phase HPLC; type: physicochemical; conditions: k'rel, isocratic RP-HPLC, pH 7.3, human insulin = 1
Procedure: The hydrophobicity of an N-terminally modified insulin is found by reverse phase HPLC run under isocratic conditions. […] The hydrophobicity, k′rel, is calculated as: k′relderiv=((tderiv−t0)(tref−t0)*k′relref. Using HI as reference: k′relref=k′relHI=1. The void time of the HPLC system, t0, is determined by injecting 5 μl of 0.1 mM NaNO3. Running conditions:
Column: Lichrosorb RP-C18, 5 μm, 4×250 mm
Buffer A: 0.1 M natrium phosphate pH 7.3, 10 vol % CH3CN
After running an initial gradient, the isocratic level for running the derivative and reference (for example HI) is chosen, and the elution times of the derivative and reference under isocratic conditions are used in the above equation to calculate k′relderiv.

human insulin receptor [3] = biological target: T1, human insulin receptor (Homo sapiens, UniProt P06213); assay: Insulin receptor affinity, SPA assay with […] HSA in binding buffer; conditions: relative to the affinity of human insulin
Procedure: (§1) SPA-PVT antibody-binding beads, anti-mouse reagent (Amersham Bio-sciences, Cat No. PRNQ0017) are mixed with 25 ml of binding buffer (100 mM HEPES pH 7.8; 100 mM sodium chloride, 10 mM MgSO4, 0.025% Tween-20). […] A total of 100 μl reagent mix is then added to each well in the Packard Optiplate and a dilution series of the N-terminally modified insulin is made in the Optiplate from appropriate samples. The samples are then incubated for 16 hours while gently shaken. The phases are the then separated by centrifugation for 1 min and the plates counted in a Topcounter.

human insulin receptor [4] = biological target: T1, human insulin receptor; assay: Insulin receptor affinity, SPA antibody capture assay (0% HSA); type: binding; conditions: relative to the affinity of human insulin
Procedure: as §1

T1 sequence (P06213 28-746 isoform P06213-2 limits assumed): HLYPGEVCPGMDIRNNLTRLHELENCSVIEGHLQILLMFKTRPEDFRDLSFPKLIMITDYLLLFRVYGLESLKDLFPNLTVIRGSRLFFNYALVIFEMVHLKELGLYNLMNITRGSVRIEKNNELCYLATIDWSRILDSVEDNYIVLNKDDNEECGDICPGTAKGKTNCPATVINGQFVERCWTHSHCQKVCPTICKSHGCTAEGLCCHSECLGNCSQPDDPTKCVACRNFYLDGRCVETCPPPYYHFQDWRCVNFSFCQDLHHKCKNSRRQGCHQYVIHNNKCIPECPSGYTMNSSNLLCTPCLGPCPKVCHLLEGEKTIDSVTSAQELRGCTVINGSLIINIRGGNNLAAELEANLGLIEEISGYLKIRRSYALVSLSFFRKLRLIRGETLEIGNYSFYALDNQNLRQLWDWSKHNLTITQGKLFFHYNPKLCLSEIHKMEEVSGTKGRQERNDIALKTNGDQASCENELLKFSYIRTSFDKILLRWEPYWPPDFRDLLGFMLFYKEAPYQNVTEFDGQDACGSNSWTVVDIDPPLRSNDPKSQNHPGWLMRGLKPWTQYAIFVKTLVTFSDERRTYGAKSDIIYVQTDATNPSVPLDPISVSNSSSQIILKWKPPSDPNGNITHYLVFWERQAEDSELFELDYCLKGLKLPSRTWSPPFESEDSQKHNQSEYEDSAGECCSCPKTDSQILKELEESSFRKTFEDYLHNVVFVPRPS
T1 sequence (P06213 763-1382 partner limits assumed): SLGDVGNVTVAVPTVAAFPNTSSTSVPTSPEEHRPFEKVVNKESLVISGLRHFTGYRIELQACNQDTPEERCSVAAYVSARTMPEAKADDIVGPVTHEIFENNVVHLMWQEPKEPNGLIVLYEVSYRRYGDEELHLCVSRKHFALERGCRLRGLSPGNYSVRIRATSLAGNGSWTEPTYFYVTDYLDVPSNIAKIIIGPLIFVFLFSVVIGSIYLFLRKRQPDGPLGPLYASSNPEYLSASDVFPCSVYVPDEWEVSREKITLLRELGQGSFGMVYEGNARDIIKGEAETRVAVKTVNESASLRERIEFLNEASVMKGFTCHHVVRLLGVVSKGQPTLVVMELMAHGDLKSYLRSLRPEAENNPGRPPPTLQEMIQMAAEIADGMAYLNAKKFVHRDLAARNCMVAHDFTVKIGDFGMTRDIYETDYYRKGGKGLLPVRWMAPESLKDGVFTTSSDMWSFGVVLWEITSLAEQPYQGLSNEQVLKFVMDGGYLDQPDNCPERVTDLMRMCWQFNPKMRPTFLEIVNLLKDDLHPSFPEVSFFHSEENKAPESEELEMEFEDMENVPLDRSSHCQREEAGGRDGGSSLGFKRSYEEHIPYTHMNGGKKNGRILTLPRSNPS

Row | Substance | Chemical degradation (%) (4 weeks 37° C.- 0 weeks 5° C.) [1] | HMWP Formation (%) (4 weeks 37° C.- 0 weeks 5° C.) [1] | Hydrophobicity rel. to human insulin [2] | Relative IR-A affinity (@ […] HSA) (%)e (human insulin receptor [3]) [%] | Relative IR-A affinity (@ 0% HSA) (%) (human insulin receptor [4])
1 | I: Me2Gly-VCQHLCGSHLVEALHLVCGERGFHYTPK([γGlu-C18 diacid]) / II: Me2Gly-IVEQCCTSCCSLEQLENYCN (disulfide I:2-II:9, I:6-II:6, I:18-II:19, II:5-II:10) [Example 8, A1(N^α,N^α-Dimethyl), A10C, A14E, B1G(N^α,N^α-dimethyl), B3C, B16H, B25H, B29K(N^εoctadecanedioyl-gGlu), desB30 Human Insulin] | 66.4 | 54.5 | – | – | –
2 | I: Me2Gly-VCQHLCGSHLVEALYLVCGERGFFYPK([AEEA-AEEA-γGlu-C18 diacid]) / II: Me2Gly-IVEQCCTSCCSLEQLENYCN (disulfide I:2-II:9, I:6-II:6, I:18-II:19, II:5-II:10) [Example 14, A1(N^α,N^α-Dimethyl), A10C, A14E, B1G(N^α,N^α-dimethyl), B3C, desB27, B29K(N^εoctadecanedioyl-gGlu-2×OEG), desB30 Human Insulin] | – | 0.0 | – | – | –
3 | I: Me2Gly-VCQHLCGSHLVEALYLVCGERGFFYPK([γGlu-C18 diacid]) / II: Me2Gly-IVEQCCTSCCSLEQLENYCN (disulfide I:2-II:9, I:6-II:6, I:18-II:19, II:5-II:10) [Example 9, A1(N^α,N^α-Dimethyl), A10C, A14E, B1G(N^α,N^α-dimethyl), B3C, desB27, B29K(N^εoctadecanedioyl-gGlu), desB30 Human Insulin] | 5.7 | – | – | – | –
4 | I: Me2Gly-VCQHLCGSHLVEALYLVCGERGFHYPK([AEEA-AEEA-γGlu-C18 diacid]) / II: Me2Gly-IVEQCCTSCCSLEQLENYCN (disulfide I:2-II:9, I:6-II:6, I:18-II:19, II:5-II:10) [Example 15, A1(N^α,N^α-Dimethyl), A10C, A14E, B1G(N^α,N^α-dimethyl), B3C, B25H, desB27, B29K(N^εoctadecanedioyl-gGlu-2×OEG), desB30 Human Insulin] | 10.4 | 1.2 | – | – | –
5 | I: Me2Gly-VCQHLCGSHLVEALYLVCGERGFHYPK([γGlu-C18 diacid]) / II: Me2Gly-IVEQCCTSCCSLEQLENYCN (disulfide I:2-II:9, I:6-II:6, I:18-II:19, II:5-II:10) [Example 7, A1(N^α,N^α-Dimethyl), A10C, A14E, B1G(N^α,N^α-dimethyl), B3C, B25H, desB27, B29K(N^εoctadecanedioyl-gGlu), desB30 Human Insulin] | 0.6 | 0.4 | – | – | –
6 | I: Me2Gly-VCQHLCGSHLVEALYLVCGERGFHYTPK([AEEA-AEEA-γGlu-C18 diacid]) / II: Me2Gly-IVEQCCTSCCSLEQLENYCN (disulfide I:2-II:9, I:6-II:6, I:18-II:19, II:5-II:10) [Example 16, A1(N^α,N^α-Dimethyl), A10C, A14E, B1G(N^α,N^α-dimethyl), B3C, B25H, B29K(N^εoctadecanedioyl-gGlu-2×OEG), desB30 Human Insulin] | 58.0 | 42.7 | – | – | –
7 | I: NMe2Phe-VCQHLCGSHLVEALHLVCGERGFHYTPK([AEEA-AEEA-γGlu-C18 diacid]) / II: Me2Gly-IVEQCCTSCCSLEQLENYCN (disulfide I:2-II:9, I:6-II:6, I:18-II:19, II:5-II:10) [Example 13, A1(N^α,N^α-Dimethyl), A10C, A14E, B1(N^α,N^α-dimethyl), B3C, B16H, B25H, B29K(N^εoctadecanedioyl-gGlu-2×OEG), desB30 Human Insulin] | 9.8 | – | – | – | –
8 | I: NMe2Phe-VCQHLCGSHLVEALHLVCGERGFHYTPK([γGlu-C18 diacid]) / II: Me2Gly-IVEQCCTSCCSLEQLENYCN (disulfide I:2-II:9, I:6-II:6, I:18-II:19, II:5-II:10) [Example 4, A1(N^α,N^α-Dimethyl), A10C, A14E, B1(N^α,N^α-dimethyl), B3C, B16H, B25H, B29K(N^εoctadecanedioyl-gGlu), desB30 Human Insulin] | 8.7 | −0.4 | – | – | –
9 | I: NMe2Phe-VCQHLCGSHLVEALYLVCGERGFHYPK([γGlu-C20 diacid]) / II: Me2Gly-IVEQCCTSCCSLEQLENYCN (disulfide I:2-II:9, I:6-II:6, I:18-II:19, II:5-II:10) [Example 18, A1(N^α,N^α-Dimethyl), A10C, A14E, B1(N^α,N^α-dimethyl), B3C, B25H, desB27, B29K(N^εeicosanedioyl-gGlu), desB30 Human Insulin] | 4.2 | 5.1 | 0.12 | 0.02 | 0.72
10 | I: NMe2Phe-VCQHLCGSHLVEALYLVCGERGFHYTPK([AEEA-AEEA-γGlu-C18 diacid]) / II: Me2Gly-IVEQCCTSCCSLEQLENYCN (disulfide I:2-II:9, I:6-II:6, I:18-II:19, II:5-II:10) [Example 12, A1(N^α,N^α-Dimethyl), A10C, A14E, B1(N^α,N^α-dimethyl), B3C, B25H, B29K(N^εoctadecanedioyl-gGlu-2×OEG), desB30 Human Insulin] | – | – | 0.077 | – | –
11 | I: NMe2Phe-VCQHLCGSHLVEALYLVCGERGFHYTPK([γGlu-C18 diacid]) / II: Me2Gly-IVEQCCTSCCSLEQLENYCN (disulfide I:2-II:9, I:6-II:6, I:18-II:19, II:5-II:10) [Example 3, A1(N^α,N^α-Dimethyl), A10C, A14E, B1(N^α,N^α-dimethyl), B3C, B25H, B29K(N^εoctadecanedioyl-gGlu), desB30 Human Insulin] | 3.4 | – | 0.065 | – | –
12 | I: NMe2Phe-VCQHLCGSHLVEALYLVCGERGFHYTPK([γGlu-C20 diacid]) / II: Me2Gly-IVEQCCTSCCSLEQLENYCN (disulfide I:2-II:9, I:6-II:6, I:18-II:19, II:5-II:10) [Example 19, A1(N^α,N^α-Dimethyl), A10C, A14E, B1(N^α,N^α-dimethyl), B3C, B25H, B29K(N^εeicosanedioyl-gGlu), desB30 Human Insulin] | 11.7 | 34.6 | – | – | –
13 | I: {Phe(Nα-CONH2)}-VCQHLCGSHLVEALYLVCGERGFFYPK([γGlu-C18 diacid]) / II: Hydantoyl-IVEQCCTSCCSLEQLENYCN (disulfide I:2-II:9, I:6-II:6, I:18-II:19, II:5-II:10) [Example 36, A1(N^α-Carbamoyl), A10C, A14E, B1(N^α-carbamoyl), B3C, desB27, B29K(N^εoctadecanedioyl-gGlu), desB30 Human Insulin] | – | – | – | 0.01 | 0.7
